Data on 1 molecule can be found in patent US20210355237A1 (RIKEN, published 2021).

For experiment [1], the target named is non-heated Der f 2-IgE antibody in clinical-case serum of allergic dogs (canine). Kind of experiment: Der f 2-IgE ELISA, serum before heating, specimen containing pathogenic IgE antibody. In general terms: An ELISA detects its analyte on a solid surface through an enzyme-linked reagent.
The target in experiment [2] is feline serum IgE antibody of allergy cases, after heating (feline). Kind of experiment: IgE ELISA of feline serum on immobilised Dermatophagoides Farinae allergen, 6C12 detection; Allergy case, Cat 3.
The target in experiment [3] is heated (56° C.) Der f 2-IgE antibody in experimental canine serum (canine). Kind of experiment: Der f 2-IgE ELISA, serum after heating, specimen containing non-pathogenic IgE antibody.
The target of experiment [4] is feline serum IgE antibody of allergy cases, after heating (feline). The experiment can be described thus: IgE ELISA of feline serum on immobilised Dermatophagoides Farinae allergen, 6C12 detection; Allergy case, Cat 2.
Experiment [5] has the same target. The experiment can be described thus: IgE ELISA of feline serum on immobilised Dermatophagoides Farinae allergen, 6C12 detection; Allergy case, Cat 1.
The target in experiment [6] is non-heated Der f 2-IgE antibody in experimental canine serum (beagles sensitized with Der f 2 and alum) (canine). Kind of experiment: Der f 2-IgE ELISA, serum before heating, specimen containing non-pathogenic IgE antibody.
Experiment [7] addresses T1, Peptide (-5C) with 6×His tag and GS linker (canine).
T1 construct: 5 amino acids deleted from the C terminal
T1 peptide: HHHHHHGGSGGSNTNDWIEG
The experiment can be described thus: ELISA, His-tagged peptide captured by anti-His tag antibody, biotinylated 6C12.

For experiment [8], the target named is T2, Peptide (-4) with 6×His tag and GS linker (canine).
T2 construct: 4 amino acids deleted from the N terminal of Peptide-full
T2 peptide: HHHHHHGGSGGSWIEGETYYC
Described as above.

The target of experiment [9] is T3, Peptide (-3C) with 6×His tag and GS linker (canine).
T3 construct: 3 amino acids deleted from the C terminal
T3 peptide: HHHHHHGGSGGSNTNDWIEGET
The experiment is described as above.

Experiment [10] concerns the target T4, Peptide (-4C) with 6×His tag and GS linker (canine).
T4 construct: 4 amino acids deleted from the C terminal
T4 peptide: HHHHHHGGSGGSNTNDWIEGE
Described as above.

The target of experiment [11] is T5, Peptide (-2C) with 6×His tag and GS linker (canine).
T5 construct: 2 amino acids deleted from the C terminal
T5 peptide: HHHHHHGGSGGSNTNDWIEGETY
The experiment is described as above.

Experiment [12] deals with T6, Peptide (-1C) with 6×His tag and GS linker (canine).
T6 construct: 1 amino acid deleted from the C terminal
T6 peptide: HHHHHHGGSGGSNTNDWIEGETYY
The description is as above.

Experiment [13] addresses heated (56° C., 15 minutes) Der f 2-IgE antibody in clinical-case serum of allergic dogs (canine). Kind of experiment: Der f 2-IgE ELISA, serum after heating, specimen containing pathogenic IgE antibody.

B1: 6C12 (monoclonal antibody produced from hybridoma clone 6C12, mouse IgG1κ) (antibody, V domains shown)
VH: EVQLVESGGGLVQPKGSLKLSCAASGFNFNAYVMNWVRQAPGKGLEWVSRIRSKSNNYATYYADSVKDRFTISRDDSESMLYLQMNNLKTEDTAMYYCVRPDYYGGSPFAYWGQGTLVTVSA
VL: QIVLTQSPAIMSASPGEKVTISCSASSSVSYMYWYQQKPGSSPKPWIYRTSNLASGVPARFGGSGSGTSYSLTISSMEAEDAATYYCQQYHSYPPTFGVGTKLELK
notes: Mouse IgG1κ purified from ascites on Protein G; used biotin-labelled (ELISA, flow cytometry) or FITC-labelled (RBL-2H3); 129-174); also called 6C12 antibody; purified 6C12
For B1, the Der f 2-IgE concentration detected by 6C12 turned out to be 0 ng/mL in [1], 1050 ng/mL in experiment [3], 1050 ng/mL in [6] and 848 ng/mL in [13]. In addition, the IgE level detected by 6C12, After heating in experiment [2] was determined as 91 ng/mL; in experiment [4] it was 34 ng/mL; in experiment [5], 89 ng/mL. The binding result in [7], in [8], in [9], in experiment [10], in experiment [11] and in [12] was “no binding” throughout.
